Patent publication US10563220B2, “Compositions and methods for efficient targeting of transgenes” (priority 2015, dated 2020)

What was measured:
[1] = tested on: negative control hybrid maize; test: PPO herbicide pre-emergence injury, negative control maize; format: in vivo; conditions: 20 days after treatment
Experimental: (§1) Transgenic F1 hybrid maize expressing APG6 operably linked to PPO H_N10 was assessed for tolerance to different seven different PPO herbicides: S-3100, Fomesafen, Acifluorfen, Lactofen, Flumioxazin, Sulfentrazone, and Saflufenacil. Pooled seed representing 5 unique events was planted in pots in a greenhouse along with hybrid maize seed as a negative control.
(§2) To test for pre-emergence herbicide tolerance, PPO herbicides were applied individually at one of two rates with six reps per treatment as follows: S-3100 (80 or 160 g ai/ha), fomesafen (Reflex®, 840 or 1680 g ai/ha), flumioxazin (Valor® SX, 210 or 420 g ai/ha), sulfentrazone (Spartan® 4L, 840 or 1680 g ai/ha), and saflufenacil (Sharpen®, 200 or 400 g ai/ha). Plants were rated for percentage of crop injury at 20 days after treatment, and maize seed was included as a negative control. […] Negative control maize plants had injury ratings ranging from 17.5% to 94.2%, with the exception of Saflufenacil, which is expected since this herbicide is marketed for used in conventional maize plants. Data are presented in Table 15 with standard error indicated as +/−.

[2] = tested on: transgenic F1 hybrid maize expressing APG6 operably linked to PPO H_N10; test: PPO herbicide pre-emergence injury, maize with APG6-PPO H_N10; format: in vivo; conditions: 20 days after treatment
Experimental: as §1, §2

[3] = tested on: transgenic Brassica napus plants; test: Dicamba tolerance in R0 Brassica napus, greenhouse; conditions: R0 plants with one copy with vector backbone or two copies, tolerant = injury 20% or less, 21 days
Experimental: Brassica napus variety 65037 Restorer line was used for Agrobacterium-mediated transformation and R0 plants were grown in the greenhouse.
Dicamba tolerance was assessed using R0 plants with one copy of transgene with vector backbone or two copies of transgene. Dicamba tolerance was designated as dicamba injury of 20% or less under greenhouse conditions.
Dicamba tolerance was assessed on R0 plants with a one copy of the transgene. Plants were sprayed in the greenhouse with dicamba (Clarity) at 1 lb ae/acre (2× rate), and dicamba tolerance was determined 14 to 21 days later.

[4] = tested on: R1 transgenic cotton plants; test: R1 cotton greenhouse dicamba injury; conditions: dicamba 1120 g ai/ha at V4; rated 9 days after treatment; DMO SEQ ID NO:18
Source text: Ten R1 seeds per event from 10 events for each construct and seed from DP393 cotton was planted to evaluate crop tolerance to post-emergence application of dicamba. Dicamba (Clarity) was applied at the V4 stage at 1120 g ai/ha. Crop injury percent ratings were taken 9 days after the treatment.

[5] = tested on: R1 transgenic soybean plants; test: R1 soybean greenhouse dicamba injury; conditions: dicamba 1120 g ai/ha at V4; rated 10 days after treatment; DMO SEQ ID NO:18
Source text: Transgenic soybean plants were generated with two DNA constructs that were identical except for the APG6 CTP. The first DNA construct had APG6 (SEQ ID NO:1) operably linked to DMO (SEQ ID NO:18). The second DNA construct had the optimized APG6 (SEQ ID NO:2) operably linked to DMO (SEQ ID NO:18). Each DNA construct was used to transform A3555 soybean by Agrobacterium mediated transformation methods. Following transformation, R0 transgenic plants containing a single copy of the transgene were identified by PCR assay. Single-copy R0 plants were grown in greenhouse, and R1 seed was harvested. Ten R1 seeds per event for 4 events generated using each of the two DNA constructs and AG3555 seed was planted for evaluation of crop tolerance to post-emergence dicamba treatment under standard greenhouse growth conditions. Dicamba (Clarity) was applied at the V4 stage at 1120 g ai/ha. Crop injury ratings were taken 10 days after the treatment.

[6] = tested on: transgenic Brassica napus plants; test: Dicamba tolerance in R1 Brassica napus, greenhouse, three sprays; format: in vivo; conditions: dicamba 2 lb ae/acre at planting, 1 lb ae/acre at V3, 1 lb ae/acre at first flower
Source text: Plants were sprayed with 2 lb ae/acre dicamba (4×) on the day of planting, followed by 1 lb ae/acre dicamba (2×) dicamba at V3 stage, and 1 lb ae/acre dicamba (2×) dicamba at first flower (defined as >90% of plants having bolted and about 25% having at least one open flower). Injury ratings were taken seven days after each spray and expressed as percent injury compared to sprayed controls. For plants containing APG6+DMO, there were 9 progeny total from 2 events with dicamba injury ratings of ≤20% at each of the three rating periods. For plants containing RbcS+DMO, there were 77 plants across 16 events with dicamba tolerance of less than 20% at each of the three rating periods.

[7] = tested on: transgenic F1 hybrid maize plants; test: F1 hybrid maize field trial of dicamba injury and yield; format: in vivo
Experimental: Dicamba tolerance was evaluated in a field trial for the transgenic F1 hybrid plants. The field trial included four treatments at two locations with two replications each. The four treatments were: (1) dicamba (Clarity®) applied at 2 lbs ae/acre (4×) at V2 followed by V4 followed by V8; (2) dicamba applied at 4 lbs at/acre (8×) at V2 followed by V4 followed by V8; (3) dicamba applied at 8 lbs at/acre (16×) at V2 followed by V4 followed by V8; and (4) dicamba applied at 16 lbs at/acre (32×) at V2 followed by V4 followed by V8. Crop injury was rated ten days after treatment and measured as crop injury percent per V-stage (CIPV2, CIPV4, or CIPV8). At the end of the season, grain was harvested and yield measured as bushels/acre. For both CIPV ratings and yield the least significant difference (LSD) at probability of 5% (p=0.05) was calculated.

[8] = tested on: R0 transgenic cotton plants; test: S-3100 tolerance of R0 transgenic cotton, greenhouse; conditions: 20 g ai/ha S-3100 at V2, three days after treatment
Experimental: Regenerated R0 transgenic plantlets were grown in the greenhouse, and leaf samples taken from the resulting R0 plants were analyzed by PCR to identify plants containing a single copy of an event. Transgenic single-copy R0 plants, each representing a unique event, were sprayed in the greenhouse with the herbicide treatment 20 g ai/ha of S-3100 applied at V2 stage. Additionally, transgenic multi-copy (≥2 copies/plant) were sprayed in the greenhouse with the herbicide treatment 20 g ai/ha of S-3100 applied at V2 stage. Injury ratings were taken at three days after treatment.

[9] = tested on: transgenic R1 soybean plants; test: PPO herbicide testing of R1 soybean (S-3100, greenhouse); conditions: for Injury R1 stage / Injury V4 stage: ten days after treatment
Experimental: Regenerated R0 transgenic plantlets were grown in the greenhouse, selfed, and R1 seed was collected. Transgenic R1 plants were sprayed in the greenhouse with one of three herbicide treatments applied at V4 and R1: (1) 5 grams ai/ha S-3100, (2) 10 grams ai/ha S-3100, or (3) 30 grams ai/ha S-3100. Crop injury ratings were assessed at ten days after treatment.

[10] = dicamba 2 lbs ae/acre (4×) at V2 fb V4 fb V8
[11] = dicamba 4 lbs (8×) at V2 fb V4 fb V8
[12] = dicamba 8 lbs (16×) at V2 fb V4 fb V8
[13] = dicamba 16 lbs (32×) at V2 fb V4 fb V8

C#CCN1C(=O)COc2cc(F)c(N3C(=O)C4=C(CCCC4)C3=O)cc21 [Flumioxazin, flumioxazin]
% Injury negative control ([1]; 210 g ai/ha): 30% +/− 6.32 | % Injury negative control ([1]; 420 g ai/ha): 60.8% +/− 6.38 | % Injury PPO H_N10 ([2]; 210 g ai/ha): 1.7% +/− 1.05 | % Injury PPO H_N10 ([2]; 420 g ai/ha): 2.5% +/− 1.71

CS(=O)(=O)NC(=O)c1cc(Oc2ccc(C(F)(F)F)cc2Cl)ccc1[N+](=O)[O-] [Fomesafen, fomesafen]
% Injury negative control ([1]; 840 g ai/ha): 75.8% +/− 5.83 | % Injury negative control ([1]; 1680 g ai/ha): 94.2% +/− 1.54 | % Injury PPO H_N10 ([2]; 840 g ai/ha): 4.2% +/− 1.54 | % Injury PPO H_N10 ([2]; 1680 g ai/ha): 5.8% +/− 0.83

CCOC(=O)COc1ncccc1Oc1cc(-n2c(=O)cc(C(F)(F)F)n(C)c2=O)c(F)cc1Cl [S-3100, ethyl [3-2-chloro-4-fluoro-5-(1-methyl-6-trifluoromethyl-2,4-dioxo-1,2,3,4-tetrahydropyrimidin-3-yl)phenoxy]-2-pyridyloxyl acetate]
% Injury negative control ([1]; 80 g ai/ha, +/− standard error): 19.2% +/− 2.39 | % Injury negative control ([1]; 160 g ai/ha): 20.8% +/− 8.31 | % Injury PPO H_N10 ([2]; 80 g ai/ha, +/− standard error): 3.3% +/− 1.67 | % Injury PPO H_N10 ([2]; 160 g ai/ha): 4.2% +/− 1.54

CC(C)N(C)S(=O)(=O)NC(=O)c1cc(-n2c(=O)cc(C(F)(F)F)n(C)c2=O)c(F)cc1Cl [Saflufenacil, saflufenacil]
% Injury negative control ([1]; 200 g ai/ha): 0% +/− 0 | % Injury negative control ([1]; 400 g ai/ha): 0.8% +/− 0.83 | % Injury PPO H_N10 ([2]; 200 g ai/ha): 0% +/− 0 | % Injury PPO H_N10 ([2]; 400 g ai/ha): 0.8% +/− 0.83

Cc1nn(-c2cc(NS(C)(=O)=O)c(Cl)cc2Cl)c(=O)n1C(F)F [Sulfentrazone, sulfentrazone]
% Injury negative control ([1]; 840 g ai/ha): 17.5% +/− 11.6 | % Injury negative control ([1]; 1680 g ai/ha): 20% +/− 11.11 | % Injury PPO H_N10 ([2]; 840 g ai/ha): 0% +/− 0 | % Injury PPO H_N10 ([2]; 1680 g ai/ha): 0% +/− 0

RbcS (SEQ ID NO: 5): Ps.RbcS-3C chloroplast transit peptide, SEQ ID NO:5 (MASMISSSAVTTVSRASRGQSAAMAPFGGLKSMTGFPVRKVNTDITSITSNGGRVKC; listed as Pisum sativum) [reference compound]
2X Tolerant events ([3]; dicamba 1 lb ae/acre): 8/9 | 4X Tolerant events ([3]; dicamba 2 lb ae/acre): 7/7

B1: Optimized APG6: amino-terminal optimized variant of the APG6 CTP, SEQ ID NO:2 (protein)
chain: MASSTTTATAAFSGVVSVGTETRRIYSFSHLQPSAAFPAKPSSFKSLKLKQSARLTRRLDHRPFVVRC
dicamba % Injury, V4 stage [4]: 2.2% | Dicamba Injury, V4 stage [5]: 2.7%

B2: APG6-DMO: APG6 CTP operably linked to dicamba monooxygenase (SEQ ID NO:20 in Brassica, SEQ ID NO:18 in maize) (protein)
chain: MLTFVRNAWYVAALPEELSEKPLGRTILDTPLALYRQPDGVVAALLDICPHRFAPLSDGILVNGHLQCPYHGLEFDGGGQCVHNPHGNGARPASLNVRSFPVVERDALIWIWPGDPALADPGAIPDFGCRVDPAYRTVGGYGHVDCNYKLLVDNLMDLGHAQYVHRANAQTDAFDRLEREVIVGDGEIQALMKIPGGTPSVLMAKFLRGANTPVDAWNDIRWNKVSAMLNFIAVAPEGTPKEQSIHSRGTHILTPETEASCHYFFGSSRNFGIDDPEMDGVLRSWQAQALVKEDKVVVEAIERRRAYVEANGIRPAMLSCDEAAVRVSREIEKLEQLEAA
events giving plants with dicamba injury of 20% or less at each of three rating periods [6]: 2 | plants (progeny) with dicamba injury of 20% or less at each of three rating periods ([6]; rated 7 days after each spray): 9 | CIPV4 (crop injury percent) [7, 10]: 2% | CIPV8 (crop injury percent) [7, 10]: 3% | Yield [7, 10]: 231.99 bu/ac | CIPV2 (crop injury percent) ([7]; dicamba 2 lbs ae/acre (4×) at V2 fb V4 fb V8, rated ten days after treatment): 0.75% | CIPV2 (crop injury percent) [7, 11]: 1.5% | CIPV4 (crop injury percent) [7, 11]: 2% | CIPV8 (crop injury percent) [7, 11]: 7.5% | Yield [7, 11]: 230.44 bu/ac | CIPV2 (crop injury percent) [7, 12]: 1.5% | CIPV4 (crop injury percent) [7, 12]: 4% | CIPV8 (crop injury percent) [7, 12]: 11.25% | Yield [7, 12]: 242.37 bu/ac | CIPV2 (crop injury percent) [7, 13]: 2% | CIPV4 (crop injury percent) [7, 13]: 5.75% | CIPV8 (crop injury percent) [7, 13]: 17.5% | Yield [7, 13]: 212.34 bu/ac

B3: APG6 + H_N10: APG6 CTP operably linked to PPO H_N10, construct for soybean and cotton (protein, listed as Arabidopsis thalinana, listed as Escherichia coli)
chain: MATATTTATAAFSGVVSVGTETRRIYSFSHLQPSAAFPAKPSSFKSLKLKQSARLTRRLDHRPFVVRCMKTLILFSTRDGQTREIASYLASELKELGIQADVANVHRIEEPQWENYDRVVIGASIRYGHYHSAFQEFVKKHATRLNSMPSAFYSVNLVARKPEKRTPQTNSYARKFLMNSQWRPDRCAVIAGALRYPRYRWYDRFMIKLIMKMSGGETDTRKEVVYTDWEQVANFAREIAHLTDKPTLK
average injury ([8]; 14 multi-copy R0 cotton plants): 10.4% | average injury ([8]; 21 single-copy R0 cotton plants): 26.7% | Injury R1 stage ([9]; S-3100 5 g/ha): 3% | Injury V4 stage ([9]; S-3100 5 g/ha): 4.2% | Injury R1 stage ([9]; S-3100 10 g/ha): 6.5% | Injury V4 stage ([9]; S-3100 10 g/ha): 7.8% | Injury R1 stage ([9]; S-3100 30 g/ha): 15.7% | Injury V4 stage ([9]; S-3100 30 g/ha): 9.4%

B4: 12G088600TP + H_N10: 12G088600TP CTP operably linked to PPO H_N10, construct for soybean (protein, listed as Gossypium raimondii, listed as Escherichia coli)
chain: MLNIAPSCVLASGISKPVTKMASTENKDDHSSAKRMKTLILFSTRDGQTREIASYLASELKELGIQADVANVHRIEEPQWENYDRVVIGASIRYGHYHSAFQEFVKKHATRLNSMPSAFYSVNLVARKPEKRTPQTNSYARKFLMNSQWRPDRCAVIAGALRYPRYRWYDRFMIKLIMKMSGGETDTRKEVVYTDWEQVANFAREIAHLTDKPTLK
survival for rating at the R1 stage ([9]; S-3100 5, 10 and 30 g ai/ha applied at V4): did not survive | Injury V4 stage ([9]; S-3100 5 g/ha): 82.7% | Injury V4 stage ([9]; S-3100 10 g/ha): 92.7% | Injury V4 stage ([9]; S-3100 30 g/ha): 98.2%
